According to patent publication US20190263922A1 (TIGA TX, published 2019):
Ends that are not written are not given here.

Tests used:
human CD20 [1] = target: T1, human CD20 (human, UniProt P11836 1-297); assay: LigandTracer Green, 10 nM FITC-labeled mAb on SKBR3-CD20 cells, OneToOne fit, competitive dissociation (100 nM unlabeled mAb of the same clone)
T1 construct: whole, on cells; Always presented on cells; also called MS4A1; CD20 WT
T1 sequence (looked up): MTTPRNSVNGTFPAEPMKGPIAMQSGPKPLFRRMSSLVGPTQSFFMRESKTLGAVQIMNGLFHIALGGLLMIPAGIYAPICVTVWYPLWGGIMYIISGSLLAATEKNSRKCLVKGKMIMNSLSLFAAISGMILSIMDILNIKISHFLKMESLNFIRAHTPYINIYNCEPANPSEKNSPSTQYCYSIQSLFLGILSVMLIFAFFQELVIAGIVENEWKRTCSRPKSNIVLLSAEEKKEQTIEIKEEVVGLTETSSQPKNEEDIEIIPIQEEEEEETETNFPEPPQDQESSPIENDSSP
Method: (§1) Kinetics analysis of interactions between the mAbs and CD20 was performed by using the LigandTracer green Technology (Ridgeview Instruments AB). 10⁶ SKBR3-CD20 cells were seeded on one side of a 10 cm culture dish (Greiner) as target cell area and association of 10 nM FITC-labeled CD20 mAb was measured. For non-competitive or competitive dissociation, labeled mAb solution was replaced by RPMI culture medium or 100 nM unlabeled mAb of the same clone, respectively. Analysis was performed using an OneToOne fitting model in TraceDrawer (Ridgeview Instruments AB).
(§2) A slow Ab off-rate might favor the formation of Ab-Clq complexes, the first component of the classical complement pathway. […] To characterize interaction kinetics and affinity of mAbs, we used the LigandTracer technology to record real-time binding and dissociation of Abs to cellular receptors.

human CD20 [2] = target: T1, human CD20; assay: LigandTracer Green, 10 nM FITC-labeled mAb on SKBR3-CD20 cells, OneToOne fit, non-competitive dissociation
Method: as §1, §2

[3] = target: T2, circular peptide YNCEPANPSEKNSPSTQYCYS (human, circular (cysteine-based loop, Pepscan technology); covalently linked to the plate); assay: PepScan ELISA, 1 ug/mL mAb on plate-linked peptide
T2 peptide: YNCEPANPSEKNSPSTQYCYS
Method: (§3) Recognition of peptides by the CD20 mAb was assessed in a PepScan-based ELISA as previously described. ⁽²⁰⁾ Briefly, 1 μg/mL mAb was added to plates with covalently linked peptides and incubated overnight at 4° C. After extensive washing, bound mAb was detected with a HRP-linked rabbit-anti-mIgG (DakoCytomation) for 1 h at 25° C. Unbound detection Ab was washed away. Plates were developed using ABTS substrate and color development quantified using a CCD camera and an image-processing system.

[4] = target: T3, linear peptide NSPSTQYGPANPSEK (human, also: covalently linked to the plate); assay: PepScan ELISA, 1 ug/mL mAb on plate-linked peptide
T3 peptide: NSPSTQYGPANPSEK
Method: as §3

- Kd (human CD20 [1]): 2.65 nM
- koff (human CD20 [1]): 6.92e-05 s⁻¹
- kon (human CD20 [1]): 26100 M⁻¹ s⁻¹
- Kd (human CD20 [2]): 1.05 nM
- koff (human CD20 [2]): 3.91e-05 s⁻¹
- kon (human CD20 [2]): 37300 M⁻¹ s⁻¹
- binding result [3]: binds
- binding result [4]: binds
B1: m1 (mIgG2c-CD20 mAb) (antibody, V domains shown)
VH: QAYLQQSGAELVRPGASVKMSCKASGYTFTSYNLHWVKQTPRQGLEWIGAIYPGNGDTSYNQKFKGKATLTVDKSSSTAYMQLSRLTSEDSAVYFCARSNSYGSTYWYFDVWGTGTTVTVSS
VL: QIVLSQSPAVLFASPGEKVTMTCRARSSVSYMDWYQQKPRSSPKPWIYATSNLASGVPARFSGSGSGTSYSLTISRVEAEDAATYYCQQWTSNPPTFGSGTKLEIK
modifications: FITC- or Alexa647-labelled in the kinetic assays; label sites not given
notes: Mouse IgG2c hybridoma mAb; FITC- or Alexa647-labeled in the kinetic assays
